Consider two proteins from patent US20190262431.

The target of series [1] is active (phosphorylated) human Syk (Merck Millipore), P43405.
In a further series the target is T1, recombinant Shp-2.
T1 sequence (Q06124 2-593, species assumed, looked up): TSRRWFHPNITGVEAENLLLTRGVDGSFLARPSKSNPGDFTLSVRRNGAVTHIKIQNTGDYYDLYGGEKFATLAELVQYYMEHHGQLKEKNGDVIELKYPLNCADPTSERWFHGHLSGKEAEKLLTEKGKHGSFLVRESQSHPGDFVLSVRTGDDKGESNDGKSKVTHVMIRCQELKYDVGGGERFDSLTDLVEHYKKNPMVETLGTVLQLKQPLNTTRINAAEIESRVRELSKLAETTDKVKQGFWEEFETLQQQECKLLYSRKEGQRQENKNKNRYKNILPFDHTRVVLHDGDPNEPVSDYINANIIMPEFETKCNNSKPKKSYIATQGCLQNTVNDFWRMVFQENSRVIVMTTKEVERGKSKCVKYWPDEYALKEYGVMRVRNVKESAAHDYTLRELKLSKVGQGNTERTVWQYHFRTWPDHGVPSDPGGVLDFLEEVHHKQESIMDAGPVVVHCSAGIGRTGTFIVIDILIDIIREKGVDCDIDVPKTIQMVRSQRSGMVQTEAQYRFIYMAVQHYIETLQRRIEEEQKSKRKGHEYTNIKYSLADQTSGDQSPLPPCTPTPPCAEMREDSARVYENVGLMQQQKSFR

The target of series [2] is inactive (non-phosphorylated) human Syk-GST (Life technologies), P43405.

B1: full length human Cbl-b (Abnova) (protein)
chain: MANSMNGRNPGGRGGNPRKGRILGIIDAIQDAVGPPKQAAADRRTVEKTWKLMDKVVRLCQNPKLQLKNSPPYILDILPDTYQHLRLILSKYDDNQKLAQLSENEYFKIYIDSLMKKSKRAIRLFKEGKERMYEEQSQDRRNLTKLSLIFSHMLAEIKAIFPNGQFQGDNFRITKADAAEFWRKFFGDKTIVPWKVFRQCLHEVHQISSGLEAMALKSTIDLTCNDYISVFEFDIFTRLFQPWGSILRNWNFLAVTHPGYMAFLTYDEVKARLQKYSTKPGSYIFRLSCTRLGQWAIGYVTGDGNILQTIPHNKPLFQALIDGSREGFYLYPDGRSYNPDLTGLCEPTPHDHIKVTQEQYELYCEMGSTFQLCKICAENDKDVKIEPCGHLMCTSCLTAWQESDGQGCPFCRCEIKGTEPIIVDPFDPRDEGSRCCSIIDPFGMPMLDLDDDDDREESLMMNRLANVRKCTDRQNSPVTSPGSSPLAQRRKPQPDPLQIPHLSLPPVPPRLDLIQKGIVRSPCGSPTGSPKSSPCMVRKQDKPLPAPPPPLRDPPPPPPERPPPIPPDNRLSRHIHHVESVPSRDPPMPLEAWCPRDVFGTNQLVGCRLLGEGSPKPGITASSNVNGRHSRVGSDPVLMRKHRRHDLPLEGAKVFSNGHLGSEEYDVPPRLSPPPPVTTLLPSIKCTGPLANSLSEKTRDPVEEDDDEYKIPSSHPVSLNSQPSHCHNVKPPVRSCDNGHCMLNGTHGPSSEKKSNIPDLSIYLKGDVFDSASDPVPLPPARPPTRDNPKHGSSLNRTPSDYDLLIPPLGEDAFDALPPSLPPPPPPARHSLIEHSKPPGSSSRPSSGQDLFLLPSDPFVDLASGQVPLPPARRLPGENVKTNRTSQDYDQLPSCSDGSQAPARPPKPRPRRTAPEIHHRKPHGPEAALENVDAKIAKLMGEGYAFEEVKRALEIAQNNVEVARSILREFAFPPPVSPRLNL
B1: in series [1], the “in vitro poly-ubiquitination of recombinant active Syk (Western blot)” value is given as “robust poly-ubiquitination of recombinant active Syk was observed”. Moreover, in the series with recombinant Shp-2, the “in vitro poly-ubiquitination of recombinant Shp-2” value is recorded as “No poly-ubiquitination of recombinant Shp-2 was detected in these assays”.

B2: human Cbl-b^29-483 (recombinant, GST fusion protein) (protein)
chain: IQDAVGPPKQAAADRRTVEKTWKLMDKVVRLCQNPKLQLKNSPPYILDILPDTYQHLRLILSKYDDNQKLAQLSENEYFKIYIDSLMKKSKRAIRLFKEGKERMYEEQSQDRRNLTKLSLIFSHMLAEIKAIFPNGQFQGDNFRITKADAAEFWRKFFGDKTIVPWKVFRQCLHEVHQISSGLEAMALKSTIDLTCNDYISVFEFDIFTRLFQPWGSILRNWNFLAVTHPGYMAFLTYDEVKARLQKYSTKPGSYIFRLSCTRLGQWAIGYVTGDGNILQTIPHNKPLFQALIDGSREGFYLYPDGRSYNPDLTGLCEPTPHDHIKVTQEQYELYCEMGSTFQLCKICAENDKDVKIEPCGHLMCTSCLTAWQESDGQGCPFCRCEIKGTEPIIVDPFDPRDEGSRCCSIIDPFGMPMLDLDDDDDREESLMMNRLANVRKCTDRQNSPVTSPGS
Take B2: the “in vitro poly-ubiquitination of inactive Syk (Syk-GST) (Western blot)” value in series [2] is reported as “non-phosphorylated recombinant Syk showed strongly diminished poly-ubiquitination by Cbl-d^29-483”. The “in vitro poly-ubiquitination of active Syk (Western blot)” value in series [1] is recorded as “still exhibited poly-ubiquitination activity towards Syk”.
